Blank lines part the entries; values can stand above or below the sequence they belong to.
How the values were obtained:
[1] = target: HLA-A*24:03; assay: IEDB peptide-MHC binding, purified MHC/competitive/fluorescence; filed as Kd, often an IC50 or EC50 that approximates it; ≥ and ≤ were set here for values at or beyond the usual limits of such assays
[2] = target: HLA-B*39:01; assay: as above
[3] = target: HLA-C*04:01; assay: IEDB peptide-MHC binding, purified MHC/direct/fluorescence; filed as Kd, often an IC50 or EC50 that approximates it; ≥ and ≤ were set here for values at or beyond the usual limits of such assays
[4] = target: HLA-B*27:03; assay: IEDB peptide-MHC binding, purified MHC/competitive/fluorescence; filed as Kd, often an IC50 or EC50 that approximates it; ≥ and ≤ were set here for values at or beyond the usual limits of such assays; conditions: source organism: Orthohantavirus sinnombreense
[5] = target: HLA-C*06:02; assay: as above; conditions: source organism: Orthohantavirus sinnombreense
[6] = target: HLA-B*45:06; assay: as above
[7] = target: HLA-B*18:01; assay: as above; conditions: source organism: Orthohantavirus sinnombreense
[8] = target: HLA-A*32:15; assay: as above
[9] = target: HLA-B*15:42; assay: as above
[10] = target: HLA-C*14:02; assay: as above
[11] = target: HLA-B*83:01; assay: as above
[12] = target: HLA-B*51:01; assay: as above; conditions: source organism: Orthohantavirus sinnombreense
[13] = target: HLA-A*03:19; assay: as above; conditions: source organism: Orthohantavirus sinnombreense
[14] = target: HLA-A*68:23; assay: as above
[15] = target: HLA-A*26:01; assay: as above; conditions: source organism: Orthohantavirus sinnombreense
[16] = target: HLA-A*32:07; assay: as above
[17] = target: HLA-A*02:01; assay: IEDB peptide-MHC binding, purified MHC/direct/fluorescence; filed as Kd, often an IC50 or EC50 that approximates it; ≥ and ≤ were set here for values at or beyond the usual limits of such assays
[18] = target: HLA-A*03:01; assay: as above; conditions: source organism: Limestone Canyon virus
[19] = target: HLA-C*05:01; assay: as above; conditions: source organism: Orthohantavirus sinnombreense
[20] = target: HLA-B*48:01; assay: IEDB peptide-MHC binding, purified MHC/competitive/fluorescence; filed as Kd, often an IC50 or EC50 that approximates it; ≥ and ≤ were set here for values at or beyond the usual limits of such assays; conditions: source organism: Burkholderia mallei SAVP1
[21] = target: HLA-B*40:13; assay: as above
[22] = target: HLA-B*27:20; assay: as above
[23] = target: HLA-C*06:02; assay: IEDB peptide-MHC binding, purified MHC/direct/fluorescence; filed as Kd, often an IC50 or EC50 that approximates it; ≥ and ≤ were set here for values at or beyond the usual limits of such assays
[24] = target: HLA-B*15:01; assay: IEDB peptide-MHC binding, purified MHC/competitive/fluorescence; filed as Kd, often an IC50 or EC50 that approximates it; ≥ and ≤ were set here for values at or beyond the usual limits of such assays
[25] = target: HLA-B*35:01; assay: as above; conditions: source organism: Yersinia pestis Nepal516
[26] = target: HLA-C*04:01; assay: as above
[27] = target: HLA-C*15:02; assay: IEDB peptide-MHC binding, purified MHC/direct/fluorescence; filed as Kd, often an IC50 or EC50 that approximates it; ≥ and ≤ were set here for values at or beyond the usual limits of such assays
[28] = target: HLA-C*12:03; assay: as above; conditions: source organism: Bacillus anthracis str. A0488
[29] = target: HLA-A*02:06; assay: IEDB peptide-MHC binding, purified MHC/competitive/fluorescence; filed as Kd, often an IC50 or EC50 that approximates it; ≥ and ≤ were set here for values at or beyond the usual limits of such assays; conditions: source organism: Haemophilus influenzae
[30] = target: HLA-A*02:11; assay: as above; conditions: source organism: Haemophilus influenzae
[31] = target: HLA-A*69:01; assay: IEDB peptide-MHC binding, purified MHC/direct/fluorescence; filed as Kd, often an IC50 or EC50 that approximates it; ≥ and ≤ were set here for values at or beyond the usual limits of such assays; conditions: source organism: Haemophilus influenzae
[32] = target: HLA-A*01:01; assay: as above; conditions: source organism: Haemophilus influenzae
[33] = target: HLA-B*40:01; assay: IEDB peptide-MHC binding, purified MHC/competitive/fluorescence; filed as Kd, often an IC50 or EC50 that approximates it; ≥ and ≤ were set here for values at or beyond the usual limits of such assays; conditions: source organism: Escherichia coli B7A
[34] = target: HLA-A*02:01; assay: as above; conditions: source organism: Salmonella enterica subsp. enterica serovar Typhi
[35] = target: HLA-B*27:05; assay: as above; conditions: source organism: Salmonella enterica subsp. enterica serovar Typhi
[36] = target: HLA-A*24:02; assay: as above
[37] = target: HLA-C*07:02; assay: IEDB peptide-MHC binding, purified MHC/direct/fluorescence; filed as Kd, often an IC50 or EC50 that approximates it; ≥ and ≤ were set here for values at or beyond the usual limits of such assays; conditions: source organism: Salmonella enterica subsp. enterica serovar Typhi str. CT18
[38] = target: HLA-A*03:01; assay: IEDB peptide-MHC binding, purified MHC/competitive/fluorescence; filed as Kd, often an IC50 or EC50 that approximates it; ≥ and ≤ were set here for values at or beyond the usual limits of such assays; conditions: source organism: Cryptosporidium parvum Iowa II
[39] = source organism: Escherichia coli str. K-12 substr. MG1655
[40] = source organism: Orthohantavirus sinnombreense
[41] = source organism: Burkholderia mallei SAVP1
[42] = source organism: Yersinia pestis Nepal516
[43] = source organism: Bacillus anthracis str. A0488
[44] = source organism: Salmonella enterica subsp. enterica serovar Typhi
[45] = source organism: Encephalitozoon cuniculi GB-M1
[46] = source organism: Cryptosporidium parvum Iowa II

Sequence: RYDKSAADL
Kd [1, 39]: 474 nM
Kd [2, 39]: ≥ 20000 nM
Kd [3, 39]: ≥ 20000 nM

Sequence: YTFTSLFSL
Kd [4]: ≥ 20000 nM
Kd [5]: 146 nM
Kd [6, 40]: ≥ 5000 nM
Kd [7]: ≥ 20000 nM
Kd [8, 40]: 82.2 nM
Kd [9, 40]: ≥ 5000 nM
Kd [10, 40]: 5.8 nM
Kd [11, 40]: ≥ 5000 nM
Kd [12]: ≥ 20000 nM
Kd [13]: 3070 nM
Kd [14, 40]: 14.2 nM
Kd [15]: ≥ 20000 nM
Kd [16, 40]: 856 nM
Kd ([17]; source organism: Itapua hantavirus): 1.5 nM
Kd [18]: ≥ 20000 nM
Kd [19]: ≥ 20000 nM

Sequence: RQYERYTAL
Kd [20]: 55.2 nM
Kd [6, 41]: ≥ 5000 nM
Kd [9, 41]: 733 nM
Kd [21, 41]: 37.7 nM
Kd [11, 41]: ≥ 5000 nM
Kd [22, 41]: 0.3 nM
Kd [16, 41]: 7.5 nM
Kd [23, 41]: 1810 nM

Sequence: MMMSTAVAF
Kd [6, 42]: ≥ 5000 nM
Kd [24, 42]: 541 nM
Kd [8, 42]: 248 nM
Kd [25]: 0.6 nM
Kd [9, 42]: ≥ 5000 nM
Kd [21, 42]: 365 nM
Kd [10, 42]: 1.1 nM
Kd [11, 42]: ≥ 5000 nM
Kd [14, 42]: 650 nM
Kd [26, 42]: 3230 nM
Kd [16, 42]: 94.5 nM
Kd [27, 42]: ≥ 20000 nM
Kd [23, 42]: ≥ 20000 nM

Sequence: YFIFVRAIL
Kd [1, 43]: 36.7 nM
Kd [28]: 436 nM
Kd [3, 43]: ≥ 20000 nM

Kd [29]: ≤ 0.1 nM
Kd [30]: ≤ 0.1 nM
Kd [31]: 639 nM
Kd ([17]; source organism: Haemophilus influenzae): 135 nM
Kd [32]: 625 nM
Sequence: YINMAWNLV

Kd [33]: 1.7 nM
Sequence: GEHVPEIIL

Sequence: KQLELFWVI
Kd [6, 44]: 833 nM
Kd [24, 44]: 497 nM
Kd [9, 44]: 2470 nM
Kd [21, 44]: 4.2 nM
Kd [11, 44]: ≥ 5000 nM
Kd [34]: ≤ 1 nM
Kd [2, 44]: 6 nM
Kd [22, 44]: 1.3 nM
Kd [16, 44]: 1.1 nM
Kd [35]: 66.1 nM
Kd [36, 44]: 0.2 nM
Kd [37]: ≥ 20000 nM

Kd [36, 45]: 86.6 nM
Kd [27, 45]: 3660 nM
Sequence: TTLSIYFLL

Sequence: VGYYTFHPK
Kd [6, 46]: ≥ 5000 nM
Kd [9, 46]: ≥ 5000 nM
Kd [11, 46]: ≥ 5000 nM
Kd [26, 46]: ≥ 5000 nM
Kd [38]: 0.9 nM

— the Immune Epitope Database (IEDB)
